Experimental data: doi:10.1101/2023.12.18.572142 (bioRxiv, 2023)
Like-named read-outs stand apart in the source and are kept apart here.

What was measured:
Assay in all cases: SPR
cat Fcμ–J complex (cat) = target: cat Fcμ–J complex (cat)
[1] = target: T1, human Fcμ–J complex (pentameric IgM core: IgM-Fc pentamer and J chain) (human, UniProt P01871-1 106-453; P01591 23-159)
[2] = target: T1, human Fcμ–J complex (pentameric IgM …); remark: listed apart in the source
[3] = target: T1, human Fcμ–J complex (pentameric IgM …); remark: listed apart in the source
mouse Fcμ–J complex = target: T2, mouse Fcμ–J complex (mouse, UniProt P01872 104-454; P01592 22-159)
T2 sequence (looked up) 1: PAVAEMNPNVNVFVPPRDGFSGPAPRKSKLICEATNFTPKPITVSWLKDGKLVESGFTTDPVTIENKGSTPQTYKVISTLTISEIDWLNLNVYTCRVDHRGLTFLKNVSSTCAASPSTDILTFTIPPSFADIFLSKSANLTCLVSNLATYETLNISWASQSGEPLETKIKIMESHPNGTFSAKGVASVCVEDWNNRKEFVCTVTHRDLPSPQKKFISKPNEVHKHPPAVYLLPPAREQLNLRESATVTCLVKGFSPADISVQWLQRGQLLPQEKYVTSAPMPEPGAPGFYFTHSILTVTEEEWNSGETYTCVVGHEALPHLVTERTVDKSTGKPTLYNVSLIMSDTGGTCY
T2 sequence (looked up) 2: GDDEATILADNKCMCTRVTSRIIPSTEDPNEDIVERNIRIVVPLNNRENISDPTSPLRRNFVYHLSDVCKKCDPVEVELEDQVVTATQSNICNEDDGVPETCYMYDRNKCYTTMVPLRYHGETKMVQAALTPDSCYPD

For “cat CD5L (3-SRCR isoform) (from UniProt A0A1E1GEY0 20-355) (natural protein)”, the Kd (cat Fcμ–J complex (cat)) was 11 nM.

B1: human CD5L (CD5 antigen-like) (natural protein, UniProt O43866 20-347, looked up)
chain: SPSGVRLVGGLHRCEGRVEVEQKGQWGTVCDDGWDIKDVAVLCRELGCGAASGTPSGILYEPPAEKEQKVLIQSVSCTGTEDTLAQCEQEEVYDCSHDEDAGASCENPESSFSPVPEGVRLADGPGHCKGRVEVKHQNQWYTVCQTGWSLRAAKVVCRQLGCGRAVLTQKRCNKHAYGRKPIWLSQMSCSGREATLQDCPSGPWGKNTCNHDEDTWVECEDPFDLRLVGGDNLCSGRLEVLHKGVWGSVCDDNWGEKEDQVVCKQLGCGKSLSPSFRDRKCYGPGVGRIWLDNVRCSGEEQSLEQCQHRFWGFHDCTHQEDVAVICSG
B1 was tested, and the Kd [1] was 30 nM.

B2: D1 domain of FcμR (domain or fragment, human)
chain: RILPEVKVEGELGGSVTIKCPLPEMHVRIYLCREMAGSGTCGTVVSTTNFIKAEYKGRVTLKQYPRKNLFLVEVTQLTESDSGVYACGAGMNTDRGKTQKVTLNVHS
Work on B2 yielded a Kd [2] of 0.3 nM and a Kd [3] of 7.2 nM.

B3: mouse CD5L (natural protein, UniProt Q9QWK4 22-352, looked up)
chain: ESPTKVQLVGGAHRCEGRVEVEHNGQWGTVCDDGWDRRDVAVVCRELNCGAVIQTPRGASYQPPASEQRVLIQGVDCNGTEDTLAQCELNYDVFDCSHEEDAGAQCENPDSDLLFIPEDVRLVDGPGHCQGRVEVLHQSQWSTVCKAGWNLQVSKVVCRQLGCGRALLTYGSCNKNTQGKGPIWMGKMSCSGQEANLRSCLLSRLENNCTHGEDTWMECEDPFELKLVGGDTPCSGRLEVLHKGSWGSVCDDNWGEKEDQVVCKQLGCGKSLHPSPKTRKIYGPGAGRIWLDDVNCSGKEQSLEFCRHRLWGYHDCTHKEDVEVICTDFDV
Work on B3 yielded a Kd (mouse Fcμ–J complex) of 5 nM.
